Assay [1] addresses Venus-tagged GBF1 HDS1 domain (human). Description: co-IP; Cos7 cells co-transfected with HA-tagged ATGL constructs and Venus-tagged constructs; IP with anti-GFP, blot with anti-HA; lysis in 50 mM Tris-HCl pH 7.5, 100 mM NaCl, 1 mM EDTA, 0.5% NP40; 4°C.
The target in assay [2] is Venus-tagged N-GBF1 D544A (human). The assay is described as above.
Assay [3] has as its target Venus-tagged full-length GBF1 D544A (human) (UniProt Q92538). The assay is described as above.
For a further assay, the target named is Venus-ΔDCB-GBF1 (human). Described as above.
For another assay, the target named is T1, GST-tagged ATGL(300–504) (human, UniProt Q96AD5 300-504).
T1 construct: source: E. coli BL21(DE3), purified (glutathione Sepharose 4B, Sephacryl S-200)
T1 sequence (looked up): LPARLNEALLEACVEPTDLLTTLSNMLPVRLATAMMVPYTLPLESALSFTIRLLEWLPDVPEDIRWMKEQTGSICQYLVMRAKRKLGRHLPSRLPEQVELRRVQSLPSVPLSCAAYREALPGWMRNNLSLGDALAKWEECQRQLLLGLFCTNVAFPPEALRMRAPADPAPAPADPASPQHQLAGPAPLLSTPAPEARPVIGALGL
Description: pull-down; quantitative: 0.1 nmole His-Sec7-GBF1(710–894) immobilised on Ni Sepharose, 1–20 µM GST-tagged ATGL(300–504) added; anti-GST immunoblot, bound versus free, Scatchard analysis; apparent Kd. The settings on record: both partners purified. Background: In western blotting, separated proteins are transferred to a membrane and probed.

Chain of Venus-tagged GBF1 HDS1 domain (human) (Q92538 688-888): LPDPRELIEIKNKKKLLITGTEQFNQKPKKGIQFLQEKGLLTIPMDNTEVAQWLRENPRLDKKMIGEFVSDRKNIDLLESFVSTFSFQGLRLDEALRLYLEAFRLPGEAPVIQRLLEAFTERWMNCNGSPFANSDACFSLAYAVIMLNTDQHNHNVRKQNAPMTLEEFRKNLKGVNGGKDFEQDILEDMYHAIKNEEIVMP
Chain of Venus-tagged full-length GBF1 D544A (human) (Q92538 other isoform, or with tags, fused parts or gaps, stated change not applied): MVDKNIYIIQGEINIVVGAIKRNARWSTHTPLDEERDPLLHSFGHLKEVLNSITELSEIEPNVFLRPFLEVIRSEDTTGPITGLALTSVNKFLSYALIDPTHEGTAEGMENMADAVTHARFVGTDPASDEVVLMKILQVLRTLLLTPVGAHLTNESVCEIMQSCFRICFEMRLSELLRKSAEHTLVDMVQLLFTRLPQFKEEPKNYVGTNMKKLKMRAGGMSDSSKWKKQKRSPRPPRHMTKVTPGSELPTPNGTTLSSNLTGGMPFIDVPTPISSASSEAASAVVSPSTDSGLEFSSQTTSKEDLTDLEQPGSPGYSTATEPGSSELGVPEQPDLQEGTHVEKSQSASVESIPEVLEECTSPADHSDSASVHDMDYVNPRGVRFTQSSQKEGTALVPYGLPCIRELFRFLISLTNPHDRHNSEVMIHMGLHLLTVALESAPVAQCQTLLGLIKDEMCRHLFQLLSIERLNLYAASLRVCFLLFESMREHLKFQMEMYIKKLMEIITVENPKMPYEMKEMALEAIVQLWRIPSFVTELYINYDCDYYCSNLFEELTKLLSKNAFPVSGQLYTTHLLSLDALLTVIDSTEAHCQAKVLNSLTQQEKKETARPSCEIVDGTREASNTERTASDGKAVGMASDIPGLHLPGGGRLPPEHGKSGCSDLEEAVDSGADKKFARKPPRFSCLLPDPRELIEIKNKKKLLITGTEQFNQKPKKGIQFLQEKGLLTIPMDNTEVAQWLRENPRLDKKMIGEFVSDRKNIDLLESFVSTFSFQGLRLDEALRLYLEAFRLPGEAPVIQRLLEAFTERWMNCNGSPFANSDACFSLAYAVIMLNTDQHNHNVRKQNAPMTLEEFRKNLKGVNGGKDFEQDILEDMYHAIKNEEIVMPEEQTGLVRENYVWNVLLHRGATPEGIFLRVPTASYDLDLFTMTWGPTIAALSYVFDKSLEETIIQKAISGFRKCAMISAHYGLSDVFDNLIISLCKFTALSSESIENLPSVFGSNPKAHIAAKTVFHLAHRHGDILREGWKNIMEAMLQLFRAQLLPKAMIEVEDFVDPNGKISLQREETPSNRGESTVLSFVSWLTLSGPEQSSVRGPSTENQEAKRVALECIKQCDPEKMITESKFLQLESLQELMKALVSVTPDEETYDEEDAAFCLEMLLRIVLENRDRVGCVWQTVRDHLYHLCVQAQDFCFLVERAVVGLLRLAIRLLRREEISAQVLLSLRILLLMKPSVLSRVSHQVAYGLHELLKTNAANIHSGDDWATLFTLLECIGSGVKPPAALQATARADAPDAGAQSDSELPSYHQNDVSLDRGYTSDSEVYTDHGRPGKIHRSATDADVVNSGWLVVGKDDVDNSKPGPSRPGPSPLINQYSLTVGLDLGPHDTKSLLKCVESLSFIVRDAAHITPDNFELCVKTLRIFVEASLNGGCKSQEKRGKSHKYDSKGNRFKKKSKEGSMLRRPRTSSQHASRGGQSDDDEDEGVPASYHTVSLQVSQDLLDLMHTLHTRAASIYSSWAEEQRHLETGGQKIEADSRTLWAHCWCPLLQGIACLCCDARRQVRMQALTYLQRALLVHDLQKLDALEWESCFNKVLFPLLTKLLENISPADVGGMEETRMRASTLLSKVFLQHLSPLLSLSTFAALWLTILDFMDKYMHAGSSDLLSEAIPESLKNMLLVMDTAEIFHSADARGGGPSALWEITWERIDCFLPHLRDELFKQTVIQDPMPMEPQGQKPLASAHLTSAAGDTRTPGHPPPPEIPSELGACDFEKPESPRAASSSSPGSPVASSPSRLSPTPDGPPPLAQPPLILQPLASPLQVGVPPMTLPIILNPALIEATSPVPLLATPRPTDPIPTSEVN
Chain of Venus-ΔDCB-GBF1 (human) (Q92538 whole entry, stated change not applied): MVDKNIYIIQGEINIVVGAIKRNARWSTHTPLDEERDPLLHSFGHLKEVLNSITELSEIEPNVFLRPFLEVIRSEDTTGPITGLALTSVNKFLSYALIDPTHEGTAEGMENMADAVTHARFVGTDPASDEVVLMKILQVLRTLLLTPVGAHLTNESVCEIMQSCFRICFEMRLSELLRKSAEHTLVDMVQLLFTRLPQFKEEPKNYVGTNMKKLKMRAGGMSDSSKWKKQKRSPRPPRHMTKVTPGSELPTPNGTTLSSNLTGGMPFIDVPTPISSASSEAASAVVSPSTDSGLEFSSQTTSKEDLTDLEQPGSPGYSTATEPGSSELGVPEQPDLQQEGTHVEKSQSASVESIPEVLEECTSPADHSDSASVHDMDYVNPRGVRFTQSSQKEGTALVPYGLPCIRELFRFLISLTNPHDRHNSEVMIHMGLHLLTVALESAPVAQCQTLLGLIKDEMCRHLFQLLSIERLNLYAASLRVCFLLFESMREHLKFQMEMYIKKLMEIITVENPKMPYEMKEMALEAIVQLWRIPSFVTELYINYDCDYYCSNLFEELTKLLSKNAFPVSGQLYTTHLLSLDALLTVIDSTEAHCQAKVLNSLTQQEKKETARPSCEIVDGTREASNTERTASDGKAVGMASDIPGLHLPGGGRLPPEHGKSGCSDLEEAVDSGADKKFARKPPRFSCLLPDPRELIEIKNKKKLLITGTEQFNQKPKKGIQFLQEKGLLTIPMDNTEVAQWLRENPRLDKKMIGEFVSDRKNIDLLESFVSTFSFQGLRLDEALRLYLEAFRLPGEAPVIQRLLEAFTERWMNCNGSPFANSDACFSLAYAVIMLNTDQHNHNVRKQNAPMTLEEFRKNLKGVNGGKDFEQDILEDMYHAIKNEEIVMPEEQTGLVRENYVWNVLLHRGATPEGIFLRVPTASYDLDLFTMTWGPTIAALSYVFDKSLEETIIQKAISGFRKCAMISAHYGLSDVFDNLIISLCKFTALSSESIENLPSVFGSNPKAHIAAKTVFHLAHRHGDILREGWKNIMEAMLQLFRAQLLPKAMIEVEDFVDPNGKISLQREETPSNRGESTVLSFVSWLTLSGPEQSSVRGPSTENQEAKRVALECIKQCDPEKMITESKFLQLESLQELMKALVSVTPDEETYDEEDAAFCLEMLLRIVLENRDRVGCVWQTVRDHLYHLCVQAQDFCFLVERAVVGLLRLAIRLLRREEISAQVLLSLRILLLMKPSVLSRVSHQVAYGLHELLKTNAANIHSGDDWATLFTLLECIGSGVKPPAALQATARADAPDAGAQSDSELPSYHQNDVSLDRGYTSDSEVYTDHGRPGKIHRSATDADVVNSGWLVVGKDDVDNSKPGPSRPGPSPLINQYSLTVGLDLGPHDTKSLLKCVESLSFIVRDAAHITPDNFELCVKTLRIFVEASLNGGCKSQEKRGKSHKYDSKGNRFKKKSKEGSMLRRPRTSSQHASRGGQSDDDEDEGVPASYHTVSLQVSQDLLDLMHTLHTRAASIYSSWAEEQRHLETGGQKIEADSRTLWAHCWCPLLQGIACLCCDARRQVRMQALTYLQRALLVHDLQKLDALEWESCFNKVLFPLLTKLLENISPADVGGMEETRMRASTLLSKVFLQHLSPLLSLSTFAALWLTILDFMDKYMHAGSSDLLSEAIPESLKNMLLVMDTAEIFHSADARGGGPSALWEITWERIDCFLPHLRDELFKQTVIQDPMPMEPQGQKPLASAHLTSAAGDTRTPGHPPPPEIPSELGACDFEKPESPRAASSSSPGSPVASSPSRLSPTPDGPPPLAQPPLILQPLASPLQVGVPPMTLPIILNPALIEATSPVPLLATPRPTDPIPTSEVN

B1: HA-tagged H. sapiens ATGL (full-length) (natural protein)
chain: MFPREKTWNISFAGCGFLGVYYVGVASCLREHAPFLVANATHIYGASAGALTATALVTGVCLGEAGAKFIEVSKEARKRFLGPLHPSFNLVKIIRSFLLKVLPADSHEHASGRLGISLTRVSDGENVIISHFNSKDELIQANVCSGFIPVYCGLIPPSLQGVRYVDGGISDNLPLYELKNTITVSPFSGESDICPQDSSTNIHELRVTNTSIQFNLRNLYRLSKALFPPEPLVLREMCKQGYRDGLRFLQRNGLLNRPNPLLALPPARPHGPEDKDQAVESAQAEDYSQLPGEDHILEHLPARLNEALLEACVEPTDLLTTLSNMLPVRLATAMMVPYTLPLESALSFTIRLLEWLPDVPEDIRWMKEQTGSICQYLVMRAKRKLGRHLPSRLPEQVELRRVQSLPSVPLSCAAYREALPGWMRNNLSLGDALAKWEECQRQLLLGLFCTNVAFPPEALRMRAPADPAPAPADPASPQHQLAGPAPLLSTPAPEARPVIGALGL
In the case of B1, the percent of ATGL recovered in the co-IP in assay [1] is 10%. For the same molecule, in assay [2], the fold level of interaction over the wild type N-terminal region is 5 to 10 fold. In addition, the fold level of interaction over wild type GBF1 (in assay [3]; in the assay with Venus-ΔDCB-GBF1 (human)) was 10 fold throughout.

B2: His-Sec7-GBF1(710–894) (domain or fragment, human, UniProt Q92538-1 710-894, looked up)
chain: FNQKPKKGIQFLQEKGLLTIPMDNTEVAQWLRENPRLDKKMIGEFVSDRKNIDLLESFVSTFSFQGLRLDEALRLYLEAFRLPGEAPVIQRLLEAFTERWMNCNGSPFANSDACFSLAYAVIMLNTDQHNHNVRKQNAPMTLEEFRKNLKGVNGGKDFEQDILEDMYHAIKNEEIVMPEEQTGLV
notes: Sec7 domain, residues 710-894; the end of the His tag is read from the printed name; vector pBAD/His C; also called His-tagged Sec7 domain of GBF1; His-Sec7-GBF1 fragment; not shown: His tag, N-terminal, kept
In the case of B2, the Kd with GST-tagged ATGL(300–504) was 2.5 ± 0.3 µM.
